Source: PMC4041433
Read-outs that look alike come from different tables or passages of the source. One block for each molecule: values may come before it.

What was measured:
[1] = biological target: Aeropyrum pernix ThermoDBP-related protein 2 (apeThermoDBP-RP2) (Aeropyrum pernix); test: SEC
[2] = biological target: Aeropyrum pernix ThermoDBP-related protein 2 (apeThermoDBP-RP2) (Aeropyrum pernix); test: crystal structure
[3] = biological target: Aeropyrum pernix ThermoDBP-related protein 2 (apeThermoDBP-RP2) (Aeropyrum pernix); test: crystal structure; remark: listed apart in the source
[4] = biological target: Pyrococcus furiosus ThermoDBP-related protein 1 (pfuThermoDBP-RP1) (Pyrococcus furiosus); test: SEC
[5] = biological target: Pyrococcus furiosus ThermoDBP-related protein 1 (pfuThermoDBP-RP1) (Pyrococcus furiosus); test: crystal structure
apeThermoDBP-RP2 [6] = biological target: T1, apeThermoDBP-RP2 (Aeropyrum pernix, UniProt Q9YAS7 1-234); test: EMSA
T1 sequence: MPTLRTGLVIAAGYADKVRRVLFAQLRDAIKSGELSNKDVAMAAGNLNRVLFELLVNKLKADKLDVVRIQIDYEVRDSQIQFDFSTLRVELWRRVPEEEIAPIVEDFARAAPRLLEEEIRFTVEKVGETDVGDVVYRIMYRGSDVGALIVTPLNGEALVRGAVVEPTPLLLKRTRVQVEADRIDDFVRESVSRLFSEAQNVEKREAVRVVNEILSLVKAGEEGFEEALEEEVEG

apeThermoDBP-RP2 [7] = biological target: T1, apeThermoDBP-RP2; test: EMSA; remark: listed apart in the source
apeThermoDBP-RP2 [8] = biological target: T1, apeThermoDBP-RP2; test: EMSA; remark: listed apart in the source
apeThermoDBP-RP2 [9] = biological target: T1, apeThermoDBP-RP2; test: EMSA; remark: listed apart in the source

stoichiometry N [1]: 4
stoichiometry N [2]: 4
stoichiometry N [3]: 4
Molecule: Aeropyrum pernix ThermoDBP-related protein 2 (apeThermoDBP-RP2) (natural protein)

stoichiometry N [4]: 4
stoichiometry N [5]: 4
Molecule: Pyrococcus furiosus ThermoDBP-related protein 1 (pfuThermoDBP-RP1) (natural protein)

Molecule: TTTTTTTTTTTTTTTTTTTTTTTTT (ssDNA) [dT25]
binding result (apeThermoDBP-RP2 [6]): binds

Molecule: TTTTTTTTTTTTTTTTTTTTTTTTTTTTTTTTTTT (ssDNA) [dT35]
binding result (apeThermoDBP-RP2 [7]): binds

Molecule: TTTTTTTTTTTTTTT (ssDNA) [dT15]
binding result (apeThermoDBP-RP2 [6]): binds

Molecule: TTTTTTTTTTTTTTTTTTTTTTTTTTTTTT (ssDNA) [dT30]
binding result (apeThermoDBP-RP2 [8]): binds

Molecule: TTTTTTTTTTTTTTTTTTTT (ssDNA) [dT20]
binding result (apeThermoDBP-RP2 [6]): binds

Molecule: CTTGCTAGGACGGATCCCTCGAGGTTTTTTTTTTTTTTTTTTTT (ssDNA) [45-mer ssDNA]
binding result (apeThermoDBP-RP2 [9]): binds
